We go through 4 compounds from US8449872B2, “Polymer conjugates of nesiritide peptides” (priority 2008, dated 2013).

The conditions of data set [1]: rat, in vivo, iv.
Protocol: (§1) Thirty one (31) adult male Sprague-Dawley rats with indwelling jugular vein and carotid artery catheters (JVC/CAC) (Charles River Labs, Hollister, Calif.) were utilized for this study. […] All animals were food fasted overnight. Prior to dosing, the rats were weighed, the tails and cage cards were labeled for identification and the doses were calculated. Anesthesia was induced and maintained with 3.0-5.0% isoflurane. The JVC and CAC were externalized and flushed with HEP/saline (10 IU/mL HEP/mL saline). The predose sample was collected from the JVC and the catheters were plugged, and labeled to identify the jugular vein and carotid artery. When all of the animals had recovered from anesthesia and the predose samples were processed, the animals were dosed, intravenously (IV) via the JVC using a 1 mL syringe containing the appropriate test article and the dead volume of the catheter was flushed with 0.9% saline to ensure the animals received the correct dose.
(§2) Following a single IV dose, blood samples were collected from groups 1A, 2A, 3A and 4A, at 0 (pre-dose collected as described above), 0.03, 0.33, 2.0, 6.0, 12.0 and 72.0 hours and from Groups 1B, 2B, 3B and 4B at 0 (pre-dose collected as described above), 0.17, 1.0, 4.0, 8.0, 24.0 and 48.0 hours via the carotid artery catheter and processed as stated in the protocol. Following the last collection point, the animals were euthanized.
(§3) Concentrations in plasma that were below LLOQ were replaced with zeros prior to generating Tables and PK analysis. In the event that more than half (>50%) of the data points were below zero, mean concentration will not be shown in the figures or used in PK parameters estimation. The following PK parameters were estimated using plasma concentration-time profile of each animal:
The nature of data set [2]: Pharmacokinetic study after a single intravenous dose in rats (noncompartmental analysis of plasma concentrations). Conditions: for Cmax: test article in plasma (non-released PEG-BNP, or native BNP), equivalent protein mass 0.459 mg/kg IV.
Protocol: as §1, §2, §3
Setting [3] is: BNP in plasma (released from conjugate or given as native BNP), 0.459 mg/kg IV, rats.
The mark [4] stands for this setting: non-released PEG-BNP in plasma, 0.459 mg/kg IV, Sprague Dawley rats.

Entries after “also recorded” stand apart in the source; their conditions may differ. Read-outs that look alike come from different tables or passages of the source.

For the compound “C2-FMOC-PEG2-40K-BNP: releasable mono-PEG conjugate of BNP-32 made with mPEG2-C2-fmoc-NHS-40K; hydrolysis generates unmodified peptide”, the “Peak concentrations of the conjugate in plasma” value in data set [1] (male, Sprague-Dawley) was 1300 ng/mL. The “time of peak concentrations of released BNP” value in data set [1] is given as 0.3 h. In addition, in data set [1] (24 h), the “plasma conjugate concentrations remained above” value was “above 100 ng/mL”. Moreover, in data set [2] (setting [3]), the AUCINF turned out to be 162 ng·h/mL, the MRTlast was 1.84 h and the Tmax was determined as 0.33 h. The “half-life of the conjugate in plasma” value in data set [2] (intact C2-FMOC-PEG2-40K-BNP in plasma, IV, rats) is 15.0 h.
With “ButyrALD-40K-BNP: non-releasable mono-PEG conjugate (N-terminus directed) of BNP-32 with mPEG2-Butyr-ALD 40 kDa”, the “peak plasma concentration compared with ButyrALD-10K-BNP (in words)” value in data set [1] is “higher”. The “clearance compared with ButyrALD-10K-BNP (in words)” value in data set [2] (non-releasable PEG constructs, IV, rats) was “lower”. For the same compound, the “half-life compared with ButyrALD-10K-BNP (in words)” value in data set [2] (non-releasable PEG constructs, IV, rats, pooled data) is “longer”. For the same compound, in data set [2] (setting [4]), the AUCINF turned out to be 41300 ng·h/mL, the CL came to 0.185 mL/min/kg, the MRTlast was determined as 24.0 h and the T½ was found to be 26.1 h. Further, the Vss in data set [2] (setting [4]) amounted to 0.631 L/kg. Also, the Cmax in data set [2] (Sprague Dawley rats) is recorded as 1410 ng/mL.
`CC[C@H](C)[C@@H]1NC(=O)[C@H](CCCNC(=N)N)NC(=O)[C@H](CC(=O)O)NC(=O)[C@H](CCSC)NC(=O)[C@H](CCCCN)NC(=O)[C@H](CCCNC(=N)N)NC(=O)CNC(=O)[C@H](Cc2ccccc2)NC(=O)[C@@H](NC(=O)CNC(=O)[C@H](CO)NC(=O)CNC(=O)[C@H](CCC(N)=O)NC(=O)[C@@H](NC(=O)[C@H](CCSC)NC(=O)[C@H](CCCCN)NC(=O)[C@@H]2CCCN2C(=O)[C@@H](N)CO)C(C)C)CSSC[C@@H](C(=O)N[C@@H](CCCCN)C(=O)N[C@H](C(=O)N[C@@H](CC(C)C)C(=O)N[C@@H](CCCN=C(N)N)C(=O)N[C@@H](CCCN=C(N)N)C(=O)N[C@@H](Cc2cnc[nH]2)C(=O)O)C(C)C)NC(=O)CNC(=O)[C@H](CC(C)C)NC(=O)CNC(=O)[C@H](CO)NC(=O)[C@H](CO)NC(=O)[C@H](CO)NC(=O)[C@H](CO)NC1=O` [BNP, Nesiritide] returned a Cmax in data set [1] (0.459 mg/kg) of 0.00 ng/mL. Moreover, in data set [2] (following parent BNP administration IV, rats), the “measurable BNP in plasma (in words)” value is given as “No measurable plasma concentrations; also recorded: No BNP was measurable”.
With “ButyrALD-10K-BNP: non-releasable mono-PEG conjugate (N-terminus directed) of BNP-32 with mPEG-Butyr-ALD-10K”, in data set [2] (setting [4]), the AUCINF was 96.6 ng·h/mL, the CL stood at 79.17 mL/min/kg, the MRTlast was determined as 0.368 h and the T½ came to 0.272 h. Moreover, in data set [2] (setting [4]), the Vss came to 2.27 L/kg. Also, the Cmax in data set [2] (Sprague Dawley rats) was 355 ng/mL.

In general, Tmax refers to the time at which the peak concentration occurs. The term Vss denotes a proportionality between amount in the body and measured concentration, not a real space. Usually Cmax stands for the peak of the concentration-time curve.
